# Reference: patent publication US20120321699A1
# pKd: −log10 of the molar value.
# Columns and labels:
# SSB autoantigen [1] = experiment: Athena assay, mAb 25 ug/ml; positive >50
# SSA autoantigen [2] = experiment: Athena assay, mAb 25 ug/ml; positive >50
# Histone autoantigen [3] = experiment: Athena assay, mAb 25 ug/ml; positive >50
# Sm autoantigen [4] = experiment: Athena assay, mAb 25 ug/ml; positive >50
# RNP autoantigen [5] = experiment: Athena assay, mAb 25 ug/ml; positive >50
# Scl 70 autoantigen [6] = experiment: Athena assay, mAb 25 ug/ml; positive >50
# centromere B autoantigen [7] = experiment: Athena assay, mAb 25 ug/ml; positive >50
# Jo 1 autoantigen [8] = experiment: Athena assay, mAb 25 ug/ml; positive >50
# SSB autoantigen [9] = experiment: Athena assay, mAb 12.5 ug/ml; positive >50
# SSA autoantigen [10] = experiment: Athena assay, mAb 12.5 ug/ml; positive >50
# Histone autoantigen [11] = experiment: Athena assay, mAb 12.5 ug/ml; positive >50
# Sm autoantigen [12] = experiment: Athena assay, mAb 12.5 ug/ml; positive >50
# RNP autoantigen [13] = experiment: Athena assay, mAb 12.5 ug/ml; positive >50
# Scl 70 autoantigen [14] = experiment: Athena assay, mAb 12.5 ug/ml; positive >50
# centromere B autoantigen [15] = experiment: Athena assay, mAb 12.5 ug/ml; positive >50
# Jo 1 autoantigen [16] = experiment: Athena assay, mAb 12.5 ug/ml; positive >50
# SSB autoantigen [17] = experiment: Athena assay, mAb 6.25 ug/ml; positive >50
# SSA autoantigen [18] = experiment: Athena assay, mAb 6.25 ug/ml; positive >50
# Histone autoantigen [19] = experiment: Athena assay, mAb 6.25 ug/ml; positive >50
# Sm autoantigen [20] = experiment: Athena assay, mAb 6.25 ug/ml; positive >50
# RNP autoantigen [21] = experiment: Athena assay, mAb 6.25 ug/ml; positive >50
# Scl 70 autoantigen [22] = experiment: Athena assay, mAb 6.25 ug/ml; positive >50
# centromere B autoantigen [23] = experiment: Athena assay, mAb 6.25 ug/ml; positive >50
# Jo 1 autoantigen [24] = experiment: Athena assay, mAb 6.25 ug/ml; positive >50
# A244 gD- gp120 (HIV-1) = experiment: SPR
# [25] = target: A244gD+ gp120 (herpes simplex virus; HIV-1); experiment: SPR
# A244gD+ gp120 (herpes simplex virus; HIV-1), sequence (Q69091 26-52): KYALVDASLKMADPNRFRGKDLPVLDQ
# [26] = target: HV00044 (6240 TZ5 140C) (HIV-1); experiment: SPR
# [27] = target: Influenza HA (Wisconsin) (influenza virus); experiment: Luminex assay, antibody 50 µg/ml
# HCV E2 (HCV) = experiment: Luminex assay, antibody 50 µg/ml
# SSB autoantigen [28] = experiment: Athena assay, mAb 50 ug/ml; positive >50
# SSA autoantigen [29] = experiment: Athena assay, mAb 50 ug/ml; positive >50
# Histone autoantigen [30] = experiment: Athena assay, mAb 50 ug/ml; positive >50
# Sm autoantigen [31] = experiment: Athena assay, mAb 50 ug/ml; positive >50
# RNP autoantigen [32] = experiment: Athena assay, mAb 50 ug/ml; positive >50
# Scl 70 autoantigen [33] = experiment: Athena assay, mAb 50 ug/ml; positive >50
# centromere B autoantigen [34] = experiment: Athena assay, mAb 50 ug/ml; positive >50
# Jo 1 autoantigen [35] = experiment: Athena assay, mAb 50 ug/ml; positive >50
Substance,Autoreactivity (Athena) (SSB autoantigen [1]),Autoreactivity (Athena) (SSA autoantigen [2]),Autoreactivity (Athena) (Histone autoantigen [3]),Autoreactivity (Athena) (Sm autoantigen [4]),Autoreactivity (Athena) (RNP autoantigen [5]),Autoreactivity (Athena) (Scl 70 autoantigen [6]),Autoreactivity (Athena) (centromere B autoantigen [7]),Autoreactivity (Athena) (Jo 1 autoantigen [8]),Autoreactivity (Athena) (SSB autoantigen [9]),Autoreactivity (Athena) (SSA autoantigen [10]),Autoreactivity (Athena) (Histone autoantigen [11]),Autoreactivity (Athena) (Sm autoantigen [12]),Autoreactivity (Athena) (RNP autoantigen [13]),Autoreactivity (Athena) (Scl 70 autoantigen [14]),Autoreactivity (Athena) (centromere B autoantigen [15]),Autoreactivity (Athena) (Jo 1 autoantigen [16]),Autoreactivity (Athena) (SSB autoantigen [17]),Autoreactivity (Athena) (SSA autoantigen [18]),background substracted RFUs [27] [RFU],background substracted RFUs (HCV E2 (HCV)) [RFU],further results
CH05 (antibody),5.5,12.5,14,3,4.5,1.5,9,3.5,5,8,11,3.5,3.5,1.5,6.5,2.5,6,7,5.5,1.3,Autoreactivity (Athena) (Histone autoantigen [19]): 10; Autoreactivity (Athena) (Sm autoantigen [20]): 2.5; Autoreactivity (Athena) (RNP autoantigen [21]): 3; Autoreactivity (Athena) (Scl 70 autoantigen [22]): 1.5; Autoreactivity (Athena) (centromere B autoantigen [23]): 6; Autoreactivity (Athena) (Jo 1 autoantigen [24]): 2.5; pKd (A244 gD- gp120 (HIV-1)): 6.47; pKd [25]: 7.58; pKd [26]: 5.84; Autoreactivity (Athena) (SSB autoantigen [28]): 13; Autoreactivity (Athena) (SSA autoantigen [29]): 27; Autoreactivity (Athena) (Histone autoantigen [30]): 21.5; Autoreactivity (Athena) (Sm autoantigen [31]): 2.5; Autoreactivity (Athena) (RNP autoantigen [32]): 9; Autoreactivity (Athena) (Scl 70 autoantigen [33]): 2; Autoreactivity (Athena) (centromere B autoantigen [34]): 14.5; Autoreactivity (Athena) (Jo 1 autoantigen [35]): 9
CH04 (antibody),8,11,16,2,6,2,13,3,4.5,7,11,2.5,4,2,8,2.5,6,6,2.5,0.5,Autoreactivity (Athena) (Histone autoantigen [19]): 9.5; Autoreactivity (Athena) (Sm autoantigen [20]): 3; Autoreactivity (Athena) (RNP autoantigen [21]): 3; Autoreactivity (Athena) (Scl 70 autoantigen [22]): 1.5; Autoreactivity (Athena) (centromere B autoantigen [23]): 6.5; Autoreactivity (Athena) (Jo 1 autoantigen [24]): 2; pKd (A244 gD- gp120 (HIV-1)): 6.39; pKd [25]: 7.59; pKd [26]: 6.44; Autoreactivity (Athena) (SSB autoantigen [28]): 11; Autoreactivity (Athena) (SSA autoantigen [29]): 19; Autoreactivity (Athena) (Histone autoantigen [30]): 26; Autoreactivity (Athena) (Sm autoantigen [31]): 3; Autoreactivity (Athena) (RNP autoantigen [32]): 9; Autoreactivity (Athena) (Scl 70 autoantigen [33]): 3; Autoreactivity (Athena) (centromere B autoantigen [34]): 18; Autoreactivity (Athena) (Jo 1 autoantigen [35]): 5
CH03 (antibody),4,6,386,10,70,7,34,4,6,6,359,9,74,8,30,4,5,5,1,2910,Autoreactivity (Athena) (Histone autoantigen [19]): 231; Autoreactivity (Athena) (Sm autoantigen [20]): 7; Autoreactivity (Athena) (RNP autoantigen [21]): 51; Autoreactivity (Athena) (Scl 70 autoantigen [22]): 4; Autoreactivity (Athena) (centromere B autoantigen [23]): 19; Autoreactivity (Athena) (Jo 1 autoantigen [24]): 3; pKd (A244 gD- gp120 (HIV-1)): 6.14; pKd [25]: 7.81; pKd [26]: 5.97; Autoreactivity (Athena) (SSB autoantigen [28]): 7; Autoreactivity (Athena) (SSA autoantigen [29]): 9; Autoreactivity (Athena) (Histone autoantigen [30]): 844; Autoreactivity (Athena) (Sm autoantigen [31]): 24; Autoreactivity (Athena) (RNP autoantigen [32]): 132; Autoreactivity (Athena) (Scl 70 autoantigen [33]): 12; Autoreactivity (Athena) (centromere B autoantigen [34]): 98; Autoreactivity (Athena) (Jo 1 autoantigen [35]): 5
Synagis (anti-RSV control mAb) (antibody),,,,,,,,,,,,,,,,,,,1,0.5,
CH02 (antibody),4.5,6,11.5,3,9,2,9.5,1.5,3.5,5,8.5,2.5,6,1.5,7,1,5,5,0.3,333,Autoreactivity (Athena) (Histone autoantigen [19]): 7; Autoreactivity (Athena) (Sm autoantigen [20]): 2.5; Autoreactivity (Athena) (RNP autoantigen [21]): 5; Autoreactivity (Athena) (Scl 70 autoantigen [22]): 2; Autoreactivity (Athena) (centromere B autoantigen [23]): 6; Autoreactivity (Athena) (Jo 1 autoantigen [24]): 1.5; pKd [25]: 6.35; Autoreactivity (Athena) (SSB autoantigen [28]): 4.5; Autoreactivity (Athena) (SSA autoantigen [29]): 5.5; Autoreactivity (Athena) (Histone autoantigen [30]): 15.5; Autoreactivity (Athena) (Sm autoantigen [31]): 3.5; Autoreactivity (Athena) (RNP autoantigen [32]): 12.5; Autoreactivity (Athena) (Scl 70 autoantigen [33]): 2.5; Autoreactivity (Athena) (centromere B autoantigen [34]): 12.5; Autoreactivity (Athena) (Jo 1 autoantigen [35]): 2
4E10 (antibody),206,247,274,7,15,4,19,138,124,169,160,5,9,3,13,87,93,115,0,89.2,Autoreactivity (Athena) (Histone autoantigen [19]): 113; Autoreactivity (Athena) (Sm autoantigen [20]): 4; Autoreactivity (Athena) (RNP autoantigen [21]): 6; Autoreactivity (Athena) (Scl 70 autoantigen [22]): 2; Autoreactivity (Athena) (centromere B autoantigen [23]): 9; Autoreactivity (Athena) (Jo 1 autoantigen [24]): 65; Autoreactivity (Athena) (SSB autoantigen [28]): 254; Autoreactivity (Athena) (SSA autoantigen [29]): 306; Autoreactivity (Athena) (Histone autoantigen [30]): 333; Autoreactivity (Athena) (Sm autoantigen [31]): 9; Autoreactivity (Athena) (RNP autoantigen [32]): 20; Autoreactivity (Athena) (Scl 70 autoantigen [33]): 3; Autoreactivity (Athena) (centromere B autoantigen [34]): 31; Autoreactivity (Athena) (Jo 1 autoantigen [35]): 156
